Results on one protein are retold here after article PMC6108936 (Cell, 2018).

The data set concerns the molecule itself. The data set is described as follows: cryo-EM structure.

B1: Cps25 (natural protein, Saccharomyces cerevisiae, UniProt Q03323 1-175, looked up)
chain: MNESENSPQHNEVTVPMVEDTSSNADIPMEQIQREDNKNYDKHDNECFDMNGNHNNNSDNLQFDSVPSSATKDLKNIKSVTNQNVKIEESSSTNSVIEESSEPKISKLENVNLAATVGGSQTRKYLNTNVTPHLLAGMRLIAVQQPEDPLRVLGEYLIEQSNILKSGEKESNASK
Regarding B1, the binding result was “binds”.
